From PMC3965549, “Evidence for LINC1-SUN Associations at the Plant Nuclear Periphery” (PLoS ONE, 2014) come the findings set out here.

This experiment has as its target T1, AtLINC1-YFP (Arabidopsis, UniProt F4HRT5 1-1132).
T1 construct: Little Nuclei 1 (LINC1) of Arabidopsis; also called Little Nuclei 1
T1 sequence (looked up): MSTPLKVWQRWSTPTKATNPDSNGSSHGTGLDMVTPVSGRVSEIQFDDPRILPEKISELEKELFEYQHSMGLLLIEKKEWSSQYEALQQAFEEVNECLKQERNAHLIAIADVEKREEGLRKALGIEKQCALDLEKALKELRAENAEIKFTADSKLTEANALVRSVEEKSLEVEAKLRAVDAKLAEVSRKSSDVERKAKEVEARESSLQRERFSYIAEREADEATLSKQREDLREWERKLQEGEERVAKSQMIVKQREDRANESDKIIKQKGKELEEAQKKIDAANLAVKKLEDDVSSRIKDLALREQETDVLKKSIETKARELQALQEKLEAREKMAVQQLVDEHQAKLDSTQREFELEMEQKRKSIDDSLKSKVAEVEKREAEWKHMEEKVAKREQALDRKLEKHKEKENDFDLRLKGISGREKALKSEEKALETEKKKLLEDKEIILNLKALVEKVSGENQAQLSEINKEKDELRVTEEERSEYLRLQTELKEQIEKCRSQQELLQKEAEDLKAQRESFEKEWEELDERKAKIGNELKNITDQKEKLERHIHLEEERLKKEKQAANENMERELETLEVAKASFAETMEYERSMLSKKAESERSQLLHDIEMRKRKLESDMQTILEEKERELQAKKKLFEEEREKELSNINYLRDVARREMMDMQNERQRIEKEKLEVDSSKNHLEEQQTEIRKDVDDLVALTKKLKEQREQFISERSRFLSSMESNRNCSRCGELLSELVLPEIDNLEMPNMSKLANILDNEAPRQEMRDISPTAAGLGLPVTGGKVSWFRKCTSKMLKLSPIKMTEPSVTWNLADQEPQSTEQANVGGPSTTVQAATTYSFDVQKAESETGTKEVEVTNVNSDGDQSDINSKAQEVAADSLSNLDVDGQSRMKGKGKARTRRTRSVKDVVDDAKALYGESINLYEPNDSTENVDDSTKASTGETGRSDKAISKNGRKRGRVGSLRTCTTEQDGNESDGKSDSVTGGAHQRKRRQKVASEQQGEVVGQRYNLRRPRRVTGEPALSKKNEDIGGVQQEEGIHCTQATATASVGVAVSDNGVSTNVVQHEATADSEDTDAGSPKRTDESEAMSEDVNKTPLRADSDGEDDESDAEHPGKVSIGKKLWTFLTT
Briefly: FRET or BRET; acceptor photobleaching FRET (apFRET) in N. benthamiana leaf cells 3 days after infiltration; CFP donor on the SUN constructs, YFP acceptor on AtLINC1; YFP bleached in a constant ROI; pre-bleach fluorescence as internal negative control; about 35 NE per sample. The note with it: partners not purified.

B1: AtSUN2^1–106-CFP (domain or fragment, Arabidopsis, UniProt Q9SG79 1-106, looked up)
chain: MSASTVSITASPRTIRRTPVLSGEKKSNFDFPPSESHANAAIGESSAGTNKDLIRAEAAGERSNTYDVGPVTRKSGSTATGTNTTTTQRRTRKSQGNKIDRGKWKT
notes: N-terminus of AtSUN2 of Arabidopsis: the first 318 bp (106 aa) of the CDS; also called SUN2 N-terminus; AtSUN2 N-terminus; source: Nicotiana benthamiana leaves, transient expression by A. tumefaciens GV3101 infiltration (pK7CWG2), in living cells; not shown: CFP, C-terminal, kept
Turning to B1, the “FRET efficiency (EF)” value worked out at 1.29%.

B2: AtSUN2-CFP (natural protein, Arabidopsis, UniProt Q9SG79 1-455, looked up)
chain: MSASTVSITASPRTIRRTPVLSGEKKSNFDFPPSESHANAAIGESSAGTNKDLIRAEAAGERSNTYDVGPVTRKSGSTATGTNTTTTQRRTRKSQGNKIDRGKWKTVVRVFAKQFGALLLLVGLIQLIRKLTLKDSSLSSSNFPIETEMVLSELESRISAVDGLVKTTTKMMQVQVEFLDKKMDSESRALRQTIDSTSSVLHSELKKVESKTERLQVSVDELNAKPLVSREELERVYEELKKGKVGDSDVNIDKLRAYARDIVEKEIGKHVADGLGRVDYALASGGAFVMGHSDPFLVGNGRNWFGTSRRRVHSKAVKMLTPSFGEPGQCFPLKGSNGYVLVRLRAPIIPEAVTLEHVSKAVAYDRSSAPKDCRVSGWLGDIDMETETMPLLTEFSYDLDRSNAQTFDIADSAHSGLVNTVRLDFNSNHGSSSHTCIYRFRVHGRELDSVSVAHA
notes: AtSUN2, Sad1/UNC84 domain protein 2 of Arabidopsis; also called full length AtSUN2; source: Nicotiana benthamiana leaves, transient expression by A. tumefaciens GV3101 infiltration (pK7CWG2), in living cells; not shown: CFP, C-terminal, kept
B2: the “FRET efficiency (EF)” value came out at 1.9%.

B3: AtSUN1-CFP (natural protein, Arabidopsis, UniProt Q9FF75 1-471, looked up)
chain: MSASTVSITANTAAATRRTPILAGEKKSNFDYPQSESLANGGVGEAGGTSRDLSRGEATLDRSQGQDLGPVTRRSVSAATGTNTTATQRRTRKVATPKSEKARWKTVVRIFAKQLGALLIIVGLIQLTRKMILKASSPSSPISSYETEMAFSGLESRIAEVDGLVKATTNSMQVQVELLDKKMEREAKVLRQEIERKASAFQSELKKIESRTESLEKSVDEVNAKPWVTKDELERIYEELKKGNVDDSAFSEISIDELRAYARDIMEKEIEKHAADGLGRVDYALASGGAFVMEHSDPYLVGKGSSWFATTMRRAHTNAVKMLSPSFGEPGQCFPLKGSEGYVQIRLRGPIIPEAFTLEHVAKSVAYDRSSAPKDCRVSGSLQGPESSAETENMQLLTEFTYDLDRSNAQTFNILESSSSGLIDTVRLDFTSNHGSDSHTCIYRFRVHGRAPDPVPVVGTNLDQDSSPESE
notes: AtSUN1, Sad1/UNC84 domain protein 1 of Arabidopsis; also called full length AtSUN1; source: Nicotiana benthamiana leaves, transient expression by A. tumefaciens GV3101 infiltration (pK7CWG2), in living cells; not shown: CFP, C-terminal, kept
As to B3, the “FRET efficiency (EF)” value came out at 1.85%.
